According to IntAct's records for PubMed 29997244:

B1: DnaJ homolog subfamily C member 5 (Homo sapiens), Q9H3Z4 (parent)
chain: MADQRQRSLSTSGESLYHVLGLDKNATSDDIKKSYRKLALKYHPDKNPDNPEAADKFKEINNAHAILTDATKRNIYDKYGSLGLYVAEQFGEENVNTYFVLSSWWAKALFVFCGLLTCCYCCCCLCCCFNCCCGKCKPKAPEGEETEFYVSPEDLEAQLQSDEREATDTPIVIQPASATETTQLTADSHPSYHTDGFN
partner: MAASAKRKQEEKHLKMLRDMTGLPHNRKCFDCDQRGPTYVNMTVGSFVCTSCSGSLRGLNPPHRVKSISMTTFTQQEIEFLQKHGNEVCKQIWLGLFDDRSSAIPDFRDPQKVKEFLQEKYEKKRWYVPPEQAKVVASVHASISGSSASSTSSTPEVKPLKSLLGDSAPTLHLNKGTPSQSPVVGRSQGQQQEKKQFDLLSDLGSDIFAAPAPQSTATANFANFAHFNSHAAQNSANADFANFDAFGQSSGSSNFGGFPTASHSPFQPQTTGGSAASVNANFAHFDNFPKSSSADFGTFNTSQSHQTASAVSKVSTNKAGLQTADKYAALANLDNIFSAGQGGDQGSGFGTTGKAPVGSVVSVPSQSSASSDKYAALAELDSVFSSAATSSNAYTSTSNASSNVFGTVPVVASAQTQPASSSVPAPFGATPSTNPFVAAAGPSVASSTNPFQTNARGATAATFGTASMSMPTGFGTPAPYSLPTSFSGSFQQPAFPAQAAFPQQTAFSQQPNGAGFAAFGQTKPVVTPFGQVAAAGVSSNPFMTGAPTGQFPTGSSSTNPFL
B2: DnaJ homolog subfamily C member 5 (Homo sapiens), Q9H3Z4 (parent)
chain: B1 chain
partner: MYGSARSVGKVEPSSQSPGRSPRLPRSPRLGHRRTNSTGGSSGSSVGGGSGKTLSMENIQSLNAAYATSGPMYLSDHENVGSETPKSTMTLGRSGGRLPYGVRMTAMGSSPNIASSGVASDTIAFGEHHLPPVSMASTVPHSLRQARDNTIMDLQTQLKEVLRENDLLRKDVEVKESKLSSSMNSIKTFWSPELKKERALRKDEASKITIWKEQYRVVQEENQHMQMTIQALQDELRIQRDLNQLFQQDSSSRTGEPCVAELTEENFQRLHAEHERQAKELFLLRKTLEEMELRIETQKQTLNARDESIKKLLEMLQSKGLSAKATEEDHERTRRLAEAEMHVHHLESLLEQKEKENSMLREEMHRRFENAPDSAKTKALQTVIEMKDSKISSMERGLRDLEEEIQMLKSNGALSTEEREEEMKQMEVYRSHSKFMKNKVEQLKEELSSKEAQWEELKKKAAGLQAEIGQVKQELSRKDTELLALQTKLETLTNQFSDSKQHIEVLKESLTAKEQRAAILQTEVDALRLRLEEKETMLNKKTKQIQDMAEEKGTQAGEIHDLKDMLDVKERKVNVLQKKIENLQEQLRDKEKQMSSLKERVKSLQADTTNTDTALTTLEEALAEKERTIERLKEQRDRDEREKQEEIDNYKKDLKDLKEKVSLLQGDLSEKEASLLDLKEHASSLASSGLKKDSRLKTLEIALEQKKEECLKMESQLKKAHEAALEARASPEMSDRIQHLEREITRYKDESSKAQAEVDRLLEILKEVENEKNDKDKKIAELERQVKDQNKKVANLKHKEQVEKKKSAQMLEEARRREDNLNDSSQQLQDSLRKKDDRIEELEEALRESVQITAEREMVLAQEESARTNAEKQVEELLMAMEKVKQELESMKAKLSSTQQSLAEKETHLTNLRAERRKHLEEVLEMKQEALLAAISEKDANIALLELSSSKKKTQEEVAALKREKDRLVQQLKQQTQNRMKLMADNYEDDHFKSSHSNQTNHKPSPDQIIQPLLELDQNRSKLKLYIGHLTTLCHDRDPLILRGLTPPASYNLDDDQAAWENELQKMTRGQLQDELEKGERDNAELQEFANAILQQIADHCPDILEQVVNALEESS
B3: DnaJ homolog subfamily C member 5 (Homo sapiens), Q9H3Z4 (parent)
chain: B1 chain
partner: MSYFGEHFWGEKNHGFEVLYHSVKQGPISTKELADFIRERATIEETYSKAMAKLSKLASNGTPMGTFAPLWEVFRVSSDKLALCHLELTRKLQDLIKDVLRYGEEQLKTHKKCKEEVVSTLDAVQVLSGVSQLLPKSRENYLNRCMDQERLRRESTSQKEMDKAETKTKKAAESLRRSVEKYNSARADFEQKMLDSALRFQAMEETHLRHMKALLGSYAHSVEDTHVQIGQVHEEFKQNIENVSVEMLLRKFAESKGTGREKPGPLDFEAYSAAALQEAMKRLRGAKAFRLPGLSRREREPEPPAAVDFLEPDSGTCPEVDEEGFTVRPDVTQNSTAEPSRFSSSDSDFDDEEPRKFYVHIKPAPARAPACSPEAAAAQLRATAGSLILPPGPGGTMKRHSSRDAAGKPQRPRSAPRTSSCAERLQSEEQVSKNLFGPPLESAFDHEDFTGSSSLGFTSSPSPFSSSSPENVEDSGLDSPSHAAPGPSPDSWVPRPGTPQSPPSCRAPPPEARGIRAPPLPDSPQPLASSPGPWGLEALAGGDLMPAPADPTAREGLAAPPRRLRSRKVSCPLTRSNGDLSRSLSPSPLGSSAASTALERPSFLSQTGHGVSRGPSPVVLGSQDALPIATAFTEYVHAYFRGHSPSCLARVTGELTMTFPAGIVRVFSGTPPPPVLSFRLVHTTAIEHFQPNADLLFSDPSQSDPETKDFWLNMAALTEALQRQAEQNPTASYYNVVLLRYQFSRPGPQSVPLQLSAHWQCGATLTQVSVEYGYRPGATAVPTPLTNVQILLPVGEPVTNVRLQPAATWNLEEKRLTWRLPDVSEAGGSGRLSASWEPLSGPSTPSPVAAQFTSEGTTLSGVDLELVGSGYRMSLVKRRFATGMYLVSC
B4: DnaJ homolog subfamily C member 5 (Homo sapiens), Q9H3Z4 (parent)
chain: B1 chain
partner: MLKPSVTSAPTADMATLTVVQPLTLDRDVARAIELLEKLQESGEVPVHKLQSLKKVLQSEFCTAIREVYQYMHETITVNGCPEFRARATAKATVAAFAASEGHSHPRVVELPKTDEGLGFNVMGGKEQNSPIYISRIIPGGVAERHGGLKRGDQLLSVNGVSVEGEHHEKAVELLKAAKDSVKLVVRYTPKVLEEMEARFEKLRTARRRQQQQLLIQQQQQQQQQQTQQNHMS
B5: DnaJ homolog subfamily C member 5 (Homo sapiens), Q9H3Z4 (parent)
chain: B1 chain
partner: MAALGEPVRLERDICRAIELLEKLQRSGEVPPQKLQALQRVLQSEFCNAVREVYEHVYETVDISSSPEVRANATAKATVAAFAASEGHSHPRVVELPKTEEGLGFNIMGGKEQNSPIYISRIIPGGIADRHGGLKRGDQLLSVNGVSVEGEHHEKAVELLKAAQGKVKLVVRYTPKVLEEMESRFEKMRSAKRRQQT
B6: DnaJ homolog subfamily C member 5 (Homo sapiens), Q9H3Z4 (parent)
chain: B1 chain
partner: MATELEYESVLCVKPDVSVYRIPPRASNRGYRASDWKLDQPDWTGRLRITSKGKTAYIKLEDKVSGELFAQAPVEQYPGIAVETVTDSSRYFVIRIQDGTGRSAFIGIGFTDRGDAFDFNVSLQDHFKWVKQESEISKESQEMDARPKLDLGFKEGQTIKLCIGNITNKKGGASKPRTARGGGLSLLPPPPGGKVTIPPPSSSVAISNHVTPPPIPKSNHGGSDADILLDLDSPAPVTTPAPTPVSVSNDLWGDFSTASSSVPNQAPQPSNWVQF
B7: DnaJ homolog subfamily C member 5 (Homo sapiens), Q9H3Z4 (parent)
chain: B1 chain
partner: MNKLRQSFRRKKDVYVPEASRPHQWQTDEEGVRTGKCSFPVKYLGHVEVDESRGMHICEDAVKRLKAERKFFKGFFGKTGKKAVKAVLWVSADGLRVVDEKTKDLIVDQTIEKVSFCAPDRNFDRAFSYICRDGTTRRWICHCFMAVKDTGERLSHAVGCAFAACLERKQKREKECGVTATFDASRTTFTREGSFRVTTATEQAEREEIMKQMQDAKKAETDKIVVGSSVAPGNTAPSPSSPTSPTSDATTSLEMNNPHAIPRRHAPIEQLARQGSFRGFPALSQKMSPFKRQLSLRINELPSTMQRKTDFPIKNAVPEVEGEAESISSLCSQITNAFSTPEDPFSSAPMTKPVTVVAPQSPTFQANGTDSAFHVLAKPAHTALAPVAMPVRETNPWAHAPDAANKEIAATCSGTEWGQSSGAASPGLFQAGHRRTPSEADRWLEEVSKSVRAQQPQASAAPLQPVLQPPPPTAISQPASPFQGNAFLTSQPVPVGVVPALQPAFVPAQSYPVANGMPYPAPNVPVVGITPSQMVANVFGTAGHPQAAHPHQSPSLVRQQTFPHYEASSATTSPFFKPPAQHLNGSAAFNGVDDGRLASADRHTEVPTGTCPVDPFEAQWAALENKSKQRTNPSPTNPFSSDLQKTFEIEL
B8: DnaJ homolog subfamily C member 5 (Homo sapiens), Q9H3Z4 (parent)
chain: B1 chain
partner: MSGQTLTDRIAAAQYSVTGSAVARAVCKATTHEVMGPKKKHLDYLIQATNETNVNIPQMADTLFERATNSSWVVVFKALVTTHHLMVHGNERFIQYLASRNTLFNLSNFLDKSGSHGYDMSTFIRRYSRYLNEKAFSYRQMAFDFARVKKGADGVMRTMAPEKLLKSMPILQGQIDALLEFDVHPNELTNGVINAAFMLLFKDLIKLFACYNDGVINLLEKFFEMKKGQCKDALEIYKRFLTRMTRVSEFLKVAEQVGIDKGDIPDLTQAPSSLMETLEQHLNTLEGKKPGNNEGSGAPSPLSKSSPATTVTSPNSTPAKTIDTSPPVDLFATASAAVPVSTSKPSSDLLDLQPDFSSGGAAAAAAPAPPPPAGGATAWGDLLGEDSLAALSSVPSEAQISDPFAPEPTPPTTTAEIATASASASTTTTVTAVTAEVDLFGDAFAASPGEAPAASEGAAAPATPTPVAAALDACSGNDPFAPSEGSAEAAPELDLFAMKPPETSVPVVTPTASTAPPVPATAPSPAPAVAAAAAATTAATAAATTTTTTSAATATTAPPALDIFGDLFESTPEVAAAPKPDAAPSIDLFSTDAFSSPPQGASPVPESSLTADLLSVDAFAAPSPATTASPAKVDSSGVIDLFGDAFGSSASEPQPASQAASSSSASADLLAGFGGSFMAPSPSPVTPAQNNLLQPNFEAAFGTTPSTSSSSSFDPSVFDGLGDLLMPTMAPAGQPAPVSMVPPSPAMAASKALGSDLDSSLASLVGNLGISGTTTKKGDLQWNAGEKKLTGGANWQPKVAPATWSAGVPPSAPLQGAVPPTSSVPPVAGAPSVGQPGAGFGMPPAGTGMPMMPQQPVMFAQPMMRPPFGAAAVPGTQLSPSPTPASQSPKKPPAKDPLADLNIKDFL
B9: DnaJ homolog subfamily C member 5 (Homo sapiens), Q9H3Z4 (parent)
chain: B1 chain
partner: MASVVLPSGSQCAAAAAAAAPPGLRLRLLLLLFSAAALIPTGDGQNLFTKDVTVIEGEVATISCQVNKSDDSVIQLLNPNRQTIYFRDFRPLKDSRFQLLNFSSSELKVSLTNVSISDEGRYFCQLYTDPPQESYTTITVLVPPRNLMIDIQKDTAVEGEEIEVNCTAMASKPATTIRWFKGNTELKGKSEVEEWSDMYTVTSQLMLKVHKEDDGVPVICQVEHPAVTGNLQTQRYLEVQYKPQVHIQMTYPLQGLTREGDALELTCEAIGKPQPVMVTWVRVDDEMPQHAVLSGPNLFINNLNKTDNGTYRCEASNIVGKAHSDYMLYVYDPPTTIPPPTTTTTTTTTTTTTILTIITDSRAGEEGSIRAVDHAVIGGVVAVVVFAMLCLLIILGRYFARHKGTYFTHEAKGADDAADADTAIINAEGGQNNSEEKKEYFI
B10: DnaJ homolog subfamily C member 5 (Homo sapiens), Q9H3Z4 (parent)
chain: B1 chain
partner: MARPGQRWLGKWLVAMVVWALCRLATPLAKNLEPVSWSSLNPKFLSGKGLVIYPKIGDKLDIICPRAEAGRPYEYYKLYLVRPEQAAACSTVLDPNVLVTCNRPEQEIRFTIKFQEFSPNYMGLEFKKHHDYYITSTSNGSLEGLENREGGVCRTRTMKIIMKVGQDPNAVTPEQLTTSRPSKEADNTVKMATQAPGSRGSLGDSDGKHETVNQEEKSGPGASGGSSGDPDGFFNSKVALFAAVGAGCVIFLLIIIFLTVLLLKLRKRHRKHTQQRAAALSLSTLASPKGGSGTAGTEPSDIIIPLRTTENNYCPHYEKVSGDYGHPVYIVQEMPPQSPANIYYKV

Variants of: B1
Settings: with agfg1_human AGFG1, P52594

**Q.** L115R was tested. Which “effect of a mutation on the interaction” value did it give?
**A.** with no effect

Variants of: B2
Settings: with rb6i2_human ERC1, Q8IUD2

**Q.** How did the “effect of a mutation on the interaction” value turn out when L115R was run?
**A.** with no effect

Variants of: B3
Settings: with fcho1_human FCHO1, O14526

**Q.** L115R was tested. Which “effect of a mutation on the interaction” value did it give?
**A.** decreasing interaction strength

Variants of: B4
Settings: with lin7a_human LIN7A

**Q.** L115R was tested. Which “effect of a mutation on the interaction” value did it give?
**A.** with no effect

Variants of: B5
Settings: with lin7c_human LIN7C

**Q.** Which “effect of a mutation on the interaction” value does the source give for L115R here?
**A.** with no effect

Variants of: B6
Settings: with necp1_human NECAP1, Q8NC96

**Q.** L115R was tested. Which “effect of a mutation on the interaction” value did it give?
**A.** with no effect

Variants of: B7
Settings: with numb_human NUMB

**Q.** For L115R, which “effect of a mutation on the interaction” value is on record?
**A.** with no effect

Variants of: B8
Settings: with ap180_human SNAP91, O60641

**Q.** For L115R, which “effect of a mutation on the interaction” value is on record?
**A.** with no effect

Variants of: B9
Settings: with cadm1_human CADM1, Q9BY67

**Q.** For L115R, which “effect of a mutation on the interaction” value is on record?
**A.** decreasing interaction strength

Variants of: B10
Settings: with efnb1_human EFNB1, P98172

**Q.** With L115R as the variant, how does the “effect of a mutation on the interaction” value read?
**A.** decreasing interaction strength
